According to the supplement of paper PMC5998384:

Assays:
HeLa Kyoto [1] = assay: melting temperature (median over replicates), in situ; higher = more thermally stable
HeLa Kyoto [2] = assay: thermal stability score vs G1/S (z-score of summed log2 fold changes over temperatures); higher = more thermally stable than in G1/S
HeLa Kyoto [3] = assay: solubility change mitosis vs G1/S (difference of NP-40 vs SDS log2 ratios) (log2 ratio difference); higher = more soluble in mitosis
HeLa Kyoto [4] = assay: solubility in G1/S (NP-40 vs SDS abundance) (log2 ratio); higher = more soluble; details: cell cycle stage: G1/S
[5] = cell cycle stage: early G1 (4.5 h after nocodazole release)
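Wherever melting temperature (median over replicates), in situ is given: HeLa Kyoto cells synchronized by double thymidine or nocodazole block, proteins quantified by TMT10plex mass spectrometry, three independent biological replicates.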
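Wherever solubility change mitosis vs G1/S (difference of NP-40 vs SDS log2 ratios) is given: synchronized HeLa Kyoto cells (double thymidine block for G1/S, nocodazole release for mitosis), protein amounts in NP-40 versus SDS lysates quantified by mass spectrometry, three biological replicates.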
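Wherever solubility in G1/S (NP-40 vs SDS abundance) is given: HeLa Kyoto cells arrested at G1/S by double thymidine block, proteins quantified by TMT10plex mass spectrometry in mild NP-40 versus SDS extracts, three biological replicates.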
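Wherever thermal stability score vs G1/S (z-score of summed log2 fold changes over temperatures) is given: synchronized HeLa Kyoto cells, proteins quantified by TMT10plex mass spectrometry, three biological replicates, mitosis taken 0.5 h after nocodazole release, G1/S directly after double thymidine block.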

Sequence	melting temperature (HeLa Kyoto [1]; cell cycle stage: G1/S)	melting temperature (HeLa Kyoto [1]; cell cycle stage: mitosis)	thermal stability score (HeLa Kyoto [2]; [5])	thermal stability score (HeLa Kyoto [2]; cell cycle stage: mitosis)	solubility change mitosis (log2) (HeLa Kyoto [3])	solubility in G1/S (log2) (HeLa Kyoto [4])
MANINLKEITLIVGVVTACYWNSLFCGFVFDDVSAILDNKDLHPSTPLKTLFQNDFWGTPMSEERSHKSYRPLTVLTFRLNYLLSELKPMSYHLLNMIFHAVVSVIFLKVCKLFLDNKSSVIASLLFAVHPIHTEAVTGVVGRAELLSSIFFLAAFLSYTRSKGPDNSIIWTPIALTVFLVAVATLCKEQGITVVGICCVYEVFIAQGYTLPLLCTTAGQFLRGKGSIPFSMLQTLVKLIVLMFSTLLLVVIRVQVIQSQLPVFTRFDNPAAVSPTPTRQLTFNYLLPVNAWLLLNPSELCCDWTMGTIPLIESLLDIRNLATFTFFCFLGMLGVFSIRYSGDSSKTVLMALCLMALPFIPASNLFFPVGFVVAERVLYVPSMGFCILVAHGWQKISTKSVFKKLSWICLSMVILTHSLKTFHRNWDWESEYTLFMSALKVNKNNAKLWNNVGHALENEKNFERALKYFLQATHVQPDDIGAHMNVGRTYKNLNRTKEAEESYMMAKSLMPQIIPGKKYAARIAPNHLNVYINLANLIRANESRLEEADQLYRQAISMRPDFKQAYISRGELLLKMNKPLKAKEAYLKALELDRNNADLWYNLAIVHIELKEPNEALKKNFNRALELNPKHKLALFNSAIVMQESGEVKLRPEARKRLLSYINEEPLDANGYFNLGMLAMDDKKDNEAEIWMKKAIKLQADFRSALFNLALLYSQTAKELKALPILEELLRYYPDHIKGLILKGDILMNQKKDILGAKKCFERILEMDPSNVQGKHNLCVVYFEEKDLLKAERCLLETLALAPHEEYIQRHLNIVRDKISSSSFIEPIFPTSKISSVEGKKIPTESVKEIRGESRQTQIVKTSDNKSQSKSNKQLGKNGDEETPHKTTKDIKEIEKKRVAALKRLEEIERILNGE [TMTC3]	52.9 °C	53.1 °C	0.0389	0.555	-0.0802	-0.0354
MEDRLHMDNGLVPQKIVSVHLQDSTLKEVKDQVSNKQAQILEPKPEPSLEIKPEQDGMEHVGRDDPKALGEEPKQRRGSASGSEPAGDSDRGGGPVEHYHLHLSSCHECLELENSTIESVKFASAENIPDLPYDYSSSLESVADETSPEREGRRVNLTGKAPNILLYVGSDSQEALGRFHEVRSVLADCVDIDSYILYHLLEDSALRDPWTDNCLLLVIATRESIPEDLYQKFMAYLSQGGKVLGLSSSFTFGGFQVTSKGALHKTVQNLVFSKADQSEVKLSVLSSGCRYQEGPVRLSPGRLQGHLENEDKDRMIVHVPFGTRGGEAVLCQVHLELPPSSNIVQTPEDFNLLKSSNFRRYEVLREILTTLGLSCDMKQVPALTPLYLLSAAEEIRDPLMQWLGKHVDSEGEIKSGQLSLRFVSSYVSEVEITPSCIPVVTNMEAFSSEHFNLEIYRQNLQTKQLGKVILFAEVTPTTMRLLDGLMFQTPQEMGLIVIAARQTEGKGRGGNVWLSPVGCALSTLLISIPLRSQLGQRIPFVQHLMSVAVVEAVRSIPEYQDINLRVKWPNDIYYSDLMKIGGVLVNSTLMGETFYILIGCGFNVTNSNPTICINDLITEYNKQHKAELKPLRADYLIARVVTVLEKLIKEFQDKGPNSVLPLYYRYWVHSGQQVHLGSAEGPKVSIVGLDDSGFLQVHQEGGEVVTVHPDGNSFDMLRNLILPKRR [HLCS]	50.8 °C	51 °C	-0.0478	0.641	-0.216	-0.0872
MKQDASRNAAYTVDCEDYVHVVEFNPFENGDSGNLIAYGGNNYVVIGTCTFQEEEADVEGIQYKTLRTFHHGVRVDGIAWSPETRLDSLPPVIKFCTSAADMKIRLFTSDLQDKNEYKVLEGHTDFINGLVFDPKEGQEIASVSDDHTCRIWNLEGVQTAHFVLHSPGMSVCWHPEETFKLMVAEKNGTIRFYDLLAQQAILSLESEQVPLMSAHWCLKNTFKVGAVAGNDWLIWDITRSSYPQNKRPVHMDRACLFRWSTISENLFATTGYPGKMASQFQIHHLGHPQPILMGSVAVGSGLSWHRTLPLCVIGGDHKLLFWVTEV [NUP37]	53.3 °C	51 °C	-3.41	-4.8	0.135	-0.294
MGSQVSVESGALHVVIVGGGFGGIAAASQLQALNVPFMLVDMKDSFHHNVAALRASVETGFAKKTFISYSVTFKDNFRQGLVVGIDLKNQMVLLQGGEALPFSHLILATGSTGPFPGKFNEVSSQQAAIQAYEDMVRQVQRSRFIVVVGGGSAGVEMAAEIKTEYPEKEVTLIHSQVALADKELLPSVRQEVKEILLRKGVQLLLSERVSNLEELPLNEYREYIKVQTDKGTEVATNLVILCTGIKINSSAYRKAFESRLASSGALRVNEHLQVEGHSNVYAIGDCADVRTPKMAYLAGLHANIAVANIVNSVKQRPLQAYKPGALTFLLSMGRNDGVGQISGFYVGRLMVRLTKSRDLFVSTSWKTMRQSPP [AIFM2]	55.3 °C	53.7 °C	-1.05	-2.26	-0.209	0.112
MSNAKERKHAKKMRNQPTNVTLSSGFVADRGVKHHSGGEKPFQAQKQEPHPGTSRQRQTRVNPHSLPDPEVNEQSSSKGMFRKKGGWKAGPEGTSQEIPKYITASTFAQARAAEISAMLKAVTQKSSNSLVFQTLPRHMRRRAMSHNVKRLPRRLQEIAQKEAEKAVHQKKEHSKNKCHKARRCHMNRTLEFNRRQKKNIWLETHIWHAKRFHMVKKWGYCLGERPTVKSHRACYRAMTNRCLLQDLSYYCCLELKGKEEEILKALSGMCNIDTGLTFAAVHCLSGKRQGSLVLYRVNKYPREMLGPVTFIWKSQRTPGDPSESRQLWIWLHPTLKQDILEEIKAACQCVEPIKSAVCIADPLPTPSQEKSQTELPDEKIGKKRKRKDDGENAKPIKKIIGDGTRDPCLPYSWISPTTGIIISDLTMEMNRFRLIGPLSHSILTEAIKAASVHTVGEDTEETPHRWWIETCKKPDSVSLHCRQEAIFELLGGITSPAEIPAGTILGLTVGDPRINLPQKKSKALPNPEKCQDNEKVRQLLLEGVPVECTHSFIWNQDICKSVTENKISDQDLNRMRSELLVPGSQLILGPHESKIPILLIQQPGKVTGEDRLGWGSGWDVLLPKGWGMAFWIPFIYRGVRVGGLKESAVHSQYKRSPNVPGDFPDCPAGMLFAEEQAKNLLEKYKRRPPAKRPNYVKLGTLAPFCCPWEQLTQDWESRVQAYEEPSVASSPNGKESDLRRSEVPCAPMPKKTHQPSDEVGTSIEHPREAEEVMDAGCQESAGPERITDQEASENHVAATGSHLCVLRSRKLLKQLSAWCGPSSEDSRGGRRAPGRGQQGLTREACLSILGHFPRALVWVSLSLLSKGSPEPHTMICVPAKEDFLQLHEDWHYCGPQESKHSDPFRSKILKQKEKKKREKRQKPGRASSDGPAGEEPVAGQEALTLGLWSGPLPRVTLHCSRTLLGFVTQGDFSMAVGCGEALGFVSLTGLLDMLSSQPAAQRGLVLLRPPASLQYRFARIAIEV [POP1]	52.2 °C	51.8 °C	1.22	-1.05	0.246	-0.778
